# IntAct's records for PubMed 29892012
# B1: Islet cell autoantigen 1 (Homo sapiens), Q05084 (parent)
# chain: MSGHKCSYPWDLQDRYAQDKSVVNKMQQKYWETKQAFIKATGKKEDEHVVASDADLDAKLELFHSIQRTCLDLSKAIVLYQKRICFLSQEENELGKFLRSQGFQDKTRAGKMMQATGKALCFSSQQRLALRNPLCRFHQEVETFRHRAISDTWLTVNRMEQCRTEYRGALLWMKDVSQELDPDLYKQMEKFRKVQTQVRLAKKNFDKLKMDVCQKVDLLGASRCNLLSHMLATYQTTLLHFWEKTSHTMAAIHESFKGYQPYEFTTLKSLQDPMKKLVEKEEKKKINQQESTDAAVQEPSQLISLEEENQRKESSSFKTEDGKSILSALDKGSTHTACSGPIDELLDMKSEEGACLGPVAGTPEPEGADKDDLLLLSEIFNASSLEEGEFSKEWAAVFGDGQVKEPVPTMALGEPDPKAQTGSGFLPSQLLDQNMKDLQASLQEPAKAASDLTAWFSLFADLDPLSNPDAVGKTDKEHELLNA
# B2: Glutaredoxin-3 (Homo sapiens), O76003 (parent)
# chain: MAAGAAEAAVAAVEEVGSAGQFEELLRLKAKSLLVVHFWAPWAPQCAQMNEVMAELAKELPQVSFVKLEAEGVPEVSEKYEISSVPTFLFFKNSQKIDRLDGAHAPELTKKVQRHASSGSFLPSANEHLKEDLNLRLKKLTHAAPCMLFMKGTPQEPRCGFSKQMVEILHKHNIQFSSFDIFSDEEVRQGLKAYSSWPTYPQLYVSGELIGGLDIIKELEASEELDTICPKAPKLEERLKVLTNKASVMLFMKGNKQEAKCGFSKQILEILNSTGVEYETFDILEDEEVRQGLKAYSNWPTYPQLYVKGELVGGLDIVKELKENGELLPILRGEN
# partner: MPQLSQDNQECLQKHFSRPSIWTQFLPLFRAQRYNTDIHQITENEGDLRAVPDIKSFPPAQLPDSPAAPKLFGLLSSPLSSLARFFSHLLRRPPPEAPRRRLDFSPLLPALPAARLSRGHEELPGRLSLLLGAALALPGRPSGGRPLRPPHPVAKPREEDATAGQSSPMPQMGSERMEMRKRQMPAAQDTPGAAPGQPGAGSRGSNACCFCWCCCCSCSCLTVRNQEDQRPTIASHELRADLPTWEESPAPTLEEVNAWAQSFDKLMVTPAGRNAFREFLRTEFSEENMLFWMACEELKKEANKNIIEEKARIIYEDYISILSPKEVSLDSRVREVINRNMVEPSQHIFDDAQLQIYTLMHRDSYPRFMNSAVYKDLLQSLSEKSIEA
# B3: Ras suppressor protein 1 (Homo sapiens), Q15404 (parent)
# chain: MSKSLKKLVEESREKNQPEVDMSDRGISNMLDVNGLFTLSHITQLVLSHNKLTMVPPNIAELKNLEVLNFFNNQIEELPTQISSLQKLKHLNLGMNRLNTLPRGFGSLPALEVLDLTYNNLSENSLPGNFFYLTTLRALYLSDNDFEILPPDIGKLTKLQILSLRDNDLISLPKEIGELTQLKELHIQGNRLTVLPPELGNLDLTGQKQVFKAENNPWVTPIADQFQLGVSHVFEYIRSETYKYLYGRHMQANPEPPKKNNDKSKKISRKPLAAKNR
# B4: Ligand of Numb protein X 2 (Homo sapiens), Q8N448 (parent)
# chain: MGTTSDEMVSVEQTSSSSLNPLCFECGQQHWTRENHLYNYQNEVDDDLVCHICLQPLLQPLDTPCGHTFCYKCLRNFLQEKDFCPLDRKRLHFKLCKKSSILVHKLLDKLLVLCPFSSVCKDVMQRCDLEAHLKNRCPGASHRRVALERRKTSRTQAEIENENGPTLLDPAGTLSPEADCLGTGAVPVERHLTSASLSTWSEEPGLDNPAFEESAGADTTQQPLSLPEGEITTIEIHRSNPYIQLGISIVGGNETPLINIVIQEVYRDGVIARDGRLLAGDQILQVNNYNISNVSHNYARAVLSQPCNTLHLTVLRERRFGNRAHNHSDSNSPREEIFQVALHKRDSGEQLGIKLVRRTDEPGVFILDLLEGGLAAQDGRLSSNDRVLAINGHDLKYGTPELAAQIIQASGERVNLTIARPGKPQPGNTIREAGNHSSSSQHHTPPPYYSRPSSHKDLTQCVTCQEKHITVKKEPHESLGMTVAGGRGSKSGELPIFVTSVPPHGCLARDGRIKRGDVLLNINGIDLTNLSHSEAVAMLKASAASPAVALKALEVQIVEEATQNAEEQPSTFSENEYDASWSPSWVMWLGLPSTLHSCHDIVLRRSYLGSWGFSIVGGYEENHTNQPFFIKTIVLGTPAYYDGRLKCGDMIVAVNGLSTVGMSHSALVPMLKEQRNKVTLTVICWPGSLV
# Variants of: B1
# Details: with rab2a_human RAB2A
row,effect of a mutation on the interaction,Variant
1,disrupting interaction strength,Q443R

# Variants of: B1
# Details: with rab2b_human RAB2B
row,effect of a mutation on the interaction,Variant
1,disrupting interaction strength,Q443R

# Variants of: B2
# Details: with rgs20_human RGS20, O76081
row,effect of a mutation on the interaction,Variant
1,with no effect,P145A

# Variants of: B3
# Details: with lims1_human LIMS1, P48059
# Chain of lims1_human LIMS1, P48059 (P48059 whole entry): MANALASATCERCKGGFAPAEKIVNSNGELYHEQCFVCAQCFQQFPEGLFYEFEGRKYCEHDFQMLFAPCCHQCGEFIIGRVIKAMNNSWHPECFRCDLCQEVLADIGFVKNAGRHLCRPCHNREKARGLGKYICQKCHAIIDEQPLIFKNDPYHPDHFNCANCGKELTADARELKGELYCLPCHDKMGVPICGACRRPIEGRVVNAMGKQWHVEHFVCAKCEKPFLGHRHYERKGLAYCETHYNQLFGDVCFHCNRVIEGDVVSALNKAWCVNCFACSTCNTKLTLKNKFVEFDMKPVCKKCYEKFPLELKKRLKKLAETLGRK
row,effect of a mutation on the interaction,Variant
1,disrupting interaction strength,P57L

# Variants of: B4
# Details: with at2l2_human PHYKPL
row,effect of a mutation on the interaction,Variant
1,with no effect,P669A

# Variants of: B4
# Details: with ip6k2_human IP6K2, Q9UHH9
# Chain of ip6k2_human IP6K2, Q9UHH9 (Q9UHH9 whole entry): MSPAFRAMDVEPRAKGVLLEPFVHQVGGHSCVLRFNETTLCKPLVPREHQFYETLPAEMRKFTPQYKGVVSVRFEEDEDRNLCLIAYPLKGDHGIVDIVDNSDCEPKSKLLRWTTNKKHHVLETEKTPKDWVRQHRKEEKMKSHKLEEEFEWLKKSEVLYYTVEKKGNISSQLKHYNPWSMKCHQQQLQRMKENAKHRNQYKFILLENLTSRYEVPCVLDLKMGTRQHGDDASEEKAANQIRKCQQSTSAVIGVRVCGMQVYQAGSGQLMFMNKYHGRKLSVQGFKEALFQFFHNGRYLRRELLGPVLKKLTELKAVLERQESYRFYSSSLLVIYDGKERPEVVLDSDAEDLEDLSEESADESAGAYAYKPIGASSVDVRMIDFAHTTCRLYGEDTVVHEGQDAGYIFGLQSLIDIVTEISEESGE
row,effect of a mutation on the interaction,Variant
1,with no effect,P669A

# Variants of: B4
# Details: with atpb_human ATP5F1B
row,effect of a mutation on the interaction,Variant
1,with no effect,P669A

# Variants of: B4
# Details: with optn_human OPTN
row,effect of a mutation on the interaction,Variant
1,with no effect,P669A

# Variants of: B4
# Details: with tbb5_human TUBB
row,effect of a mutation on the interaction,Variant
1,with no effect,P669A

# Variants of: B4
# Details: with mk09_human MAPK9, P45984
row,effect of a mutation on the interaction,Variant
1,with no effect,P669A

# Variants of: B4
# Details: with ptcd3_human PTCD3, Q96EY7
row,effect of a mutation on the interaction,Variant
1,with no effect,P669A

# Variants of: B4
# Details: with lrc8e_human LRRC8E
row,effect of a mutation on the interaction,Variant
1,with no effect,P669A
